Experimental data taken from article PMC9303311.

B1: 5'FAM-ssDNA57 (ssDNA)
DNA: TGGAGAATCCCGGTGCCGAGGCCGCTCAATTGGTCGTAGACAGCTCTAGCACCGCTT

How the values were obtained:
SAMHD1 T592E = SAMHD1 T592E (Homo sapiens, UniProt Q9Y3Z3 1-626, T592E); assay: fluorescence anisotropy
SAMHD1 wild-type = SAMHD1 wild-type (Homo sapiens, UniProt Q9Y3Z3 1-626); assay: fluorescence anisotropy
Sequence of SAMHD1 wild-type (Q9Y3Z3 whole entry): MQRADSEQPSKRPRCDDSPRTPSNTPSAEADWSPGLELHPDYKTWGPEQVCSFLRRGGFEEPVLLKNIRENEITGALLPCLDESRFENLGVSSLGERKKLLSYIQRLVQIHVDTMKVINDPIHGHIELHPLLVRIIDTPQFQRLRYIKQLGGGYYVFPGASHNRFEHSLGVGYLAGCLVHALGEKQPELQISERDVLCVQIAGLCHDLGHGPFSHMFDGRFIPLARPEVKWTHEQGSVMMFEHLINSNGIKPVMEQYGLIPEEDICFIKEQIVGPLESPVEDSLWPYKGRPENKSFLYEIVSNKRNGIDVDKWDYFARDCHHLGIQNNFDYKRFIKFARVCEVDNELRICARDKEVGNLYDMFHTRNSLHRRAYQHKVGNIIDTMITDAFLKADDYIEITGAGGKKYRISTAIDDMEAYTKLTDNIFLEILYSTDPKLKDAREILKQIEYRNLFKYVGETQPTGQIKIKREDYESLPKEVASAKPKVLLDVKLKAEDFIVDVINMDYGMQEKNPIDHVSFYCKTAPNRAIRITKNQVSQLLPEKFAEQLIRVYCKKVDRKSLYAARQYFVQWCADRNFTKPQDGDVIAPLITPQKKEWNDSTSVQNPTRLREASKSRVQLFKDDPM

Sequence of SAMHD1 T592E (Q9Y3Z3 whole entry T592E): as the sequence (Q9Y3Z3 whole entry) above, with T592E counted along it

Binder	Kd (SAMHD1 T592E) [nM]	Kd (SAMHD1 wild-type) [nM]
B1	431 ± 25	
CGCCT (XNA, phosphorothioate at every internucleotide linkage, mixed Rp/Sp) [5'FAM-PsDNA5]	283 ± 8	119 ± 7
